From paper PMC6126647

Target: MmCPDII (class II CPD photolyase) (UniProt Q8PYK9 1-464)
Experiment: X-ray crystallography (2.7 A); oxidized FAD; dark, unrepaired CPD; Co-crystallization: protein in 10 mM Tris-HCl pH 8.0, 100 mM NaCl with 1.25x dsDNA (in 100 mM Tris-HCl pH 8.0, 100 mM NaCl), 30 min in dark; mixed 1:1 with 0.1

B1: 14-mer duplex with natural phosphodiester-linked cis-syn CPD (PDM DNA) (dsDNA)
DNA 1: ATCGGCTTCGCGCA
DNA 2: TGCGCGAAGCCGAT
modifications: cis-syn cyclobutane thymine dimer T7<>T8 in strand 1, natural intra-lesion phosphodiester
Question: Does B1 bind?
Answer: Result: binds
